Assay results: US8816053B2 (ZymoGenetics, Inc., priority 2004, dated 2014)

T1: zcyto20 (Homo sapiens, UniProt Q8IZJ0)
T1 sequence (Q8IZJ0 26-200): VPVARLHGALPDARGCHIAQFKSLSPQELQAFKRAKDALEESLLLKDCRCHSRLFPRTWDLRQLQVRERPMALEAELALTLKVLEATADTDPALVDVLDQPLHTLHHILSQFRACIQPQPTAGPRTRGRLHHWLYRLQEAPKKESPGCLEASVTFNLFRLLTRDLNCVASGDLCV

B1: Zcyto24: mouse IL-28 (zcyto24), SEQ ID NO:8 (protein, listed as Mus musculus)
chain: MKPETAGGHMLLLLLPLLLAAVLTRTQADPVPRATRLPVEAKDCHIAQFKSLSPKELQAFKKAKDAIEKRLLEKDLRCSSHLFPRAWDLKQLQVQERPKALQAEVALTLKVWENMTDSALATILGQPLHTLSHIHSQLQTCTQLQATAEPRSPSRRLSRWLHRLQEAQSKETPGCLEASVTSNLFRLLTRDLKCVANGDQCV
B2: Muzcytor19-Ig: murine zcytor19-Ig homodimeric soluble receptor (protein)
chain: RPRLAPPRNVTLFSQNFTVYLTWLPGLGSPPNVTYFVTYQSYIKTGWRPVEHCAGIKALVCPLMCLKKLNLYSKFKGRVQAASAHGRSPRVESRYLEYLFDVELAPPTLVLTQMEKILRVNATYQLPPCMPSLELKYQVEFWKEGLGSKTLFPDTPYGQPVQIPLQQGASRRHCLSARTVYTLIDIKYSQFSEPSCIFLEAPGDKRA
modifications: left off: a dimerising Fc or GST
notes: murine zcytor19-Ig homodimeric soluble receptor
B3: IL-29: human IL-29 cytokine polypeptide, previous designation zcyto21 (e.g. SEQ ID NO:20, CHO-derived) (protein, listed as Homo sapiens)
chain: MAAAWTVVLVTLVLGLAVAGPVPTSKPTTTGKGCHIGRFKSLSPQELASFKKARDALEESLKLKNWSCSSPVFPGNWDLRLLQVRERPVALEAELALTLKVLEAAAGPALEDVLDQPLHTLHHILSQLQACIQPQPTAGPRPRGRLHHWLHRLQEAPKKESAGCLEASVTFNLFRLLTRDLKYVADGNLCLRTSTHPEST
modifications: SIGNAL (1)...(19)
B4: IL-28A: human IL-28A cytokine polypeptide, previous designation zcyto20 (e.g. SEQ ID NO:18, CHO-derived) (protein, listed as Homo sapiens)
chain: MKLDMTGDCTPVLVLMAAVLTVTGAVPVARLHGALPDARGCHIAQFKSLSPQELQAFKRAKDALEESLLLKDCRCHSRLFPRTWDLRQLQVRERPMALEAELALTLKVLEATADTDPALVDVLDQPLHTLHHILSQFRACIQPQPTAGPRTRGRLHHWLYRLQEAPKKESPGCLEASVTFNLFRLLTRDLNCVASGDLCV
modifications: SIGNAL (1)...(25)

Columns and labels:
zcyto20 = molecular target: T1, zcyto20; assay: Inhibition of ligand-induced ISRE signaling by soluble receptors, 293 HEK cells overexpressing zcytor19, ligand zcyto20; assay type: cell-based; settings: all three ligands together; soluble receptor 10 micrograms/ml
Description: A signal transduction reporter assay can be used to show the inhibitor properties of zcytor19-Fc4 homodimeric and zcytor19-Fc/CRF2-4-Fc heterodimeric soluble receptors on zcyto20, zcyto21 and zcyto24 signaling. Human embryonal kidney (HEK) cells overexpressing the zcytor19 receptor are transfected with a reporter plasmid containing an interferon-stimulated response element (ISRE) driving transcription of a luciferase reporter gene. Luciferase activity following stimulation of transfected cells with ligands (including zcyto20 (SEQ ID NO:18), zcyto21 (SEQ ID NO:20), zcyto24 (SEQ ID NO:8)) reflects the interaction of the ligand with soluble receptor.
The results obtained are shown as the percent inhibition of ligand-induced signaling in the presence of soluble receptor relative to the signaling in the presence of PBS alone.

[1] = test system: mouse OAS, Pkr and Mx1 in AML-12 cells; assay: ISG induction in the mouse liver cell line AML-12 (real-time PCR); assay type: cell-based; settings: AML-12, 20 ng/ml, 48 hour time point
adenoviral vector, AdGFP = assay: Adenoviral vector (AdGFP) liver pathology model in C57Bl/6 mice; settings: 50 μg i.p., 7 doses; H&E
Mouse B cells = assay: 3H-thymidine incorporation by mouse B cells; assay type: cell-based
Experimental: Mouse B cells were isolated from 2 Balb/C spleens (7 months old) by depleting CD43+ cells using MACS magnetic beads. Purified B cells were cultured in vitro with LPS, anti-IgM or anti-CD40 monoclonal antibodies. Mouse IL-28 or mouse IFNα was added to the cultures and ^3H-thymidine was added at 48 hrs. and ^3H-thymidine incorporation was measured after 72 hrs. culture.

mouse OAS, Pkr and Mx1 = assay: ISG gene induction in liver, spleen and blood of C57BL/6 mice injected with protein (real-time PCR); assay type: in vivo; settings: i.p. or i.v., 10 μg-250 μg, 1 hr-48 hr
Experimental: Mice were sacrificed at various time points (1 hr-48 hr). Spleens and livers were isolated from mice, and RNA was isolated. RNA was also isolated from the blood cells. The cells were pelleted and RNA isolated from pellets using RNAEasy®-kit (Qiagen). RNA was treated with DNase (Amicon) to rid RNA of any contaminating DNA. cDNA was generated using Perkin-Elmer RT mix (Perkin-Elmer). ISG gene induction was measured by real-time PCR using primers and probes specific for mouse OAS, Pkr and Mx1. To obtain quantitative data, HPRT real-time PCR was duplexed with ISG PCR. A standard curve was calculated using known amounts of IFN-stimulated mouse PBLs. All data are shown as expression relative to internal HPRT expression.
Results shown are fold expression relative to HPRT gene expression. […] The data shown is the average expression from 5 different animals/group.
Mice were injected with 100 μg of proteins i.v. Data shown is fold expression over HPRT expression from livers of mice. Similar data was obtained from blood and spleens of mice.

OAS activity = OAS activity in serum and plasma of treated mice (OAS radioimmunoassay); assay type: in vivo, mouse; settings: i.v., 10 μg-250 μg
Experimental: Serum and plasma were isolated from mice at varying time points, and OAS activity was measured using the OAS radioimmunoassay (RIA) kit from Eiken Chemicals (Tokyo, Japan).

Molecule	inhibition of zcyto20, zcyto21 and zcyto24-induced signaling (zcyto20)	liver and inflammation scores (liver histology) versus the PBS-treated group (adenoviral vector, AdGFP)	ISG gene expression (OAS, Pkr, Mx1) in the livers, spleen and blood of mice (mouse OAS, Pkr and Mx1)	also measured
HuCRF2-4-Fc: human CRF2-4-Fc homodimeric soluble receptor	No significant effects			
B1		lower		Mx1 (expression relative to HPRT) [1]: 0.08; OAS (expression relative to HPRT) [1]: 0.04; PkR (expression relative to HPRT) [1]: 0.02; 3H-thymidine incorporation (Mouse B cells; B cells stimulated with LPS or anti-IgM, IFNα 10 ng/ml, mouse IL-28 any concentration including 1000 ng/ml, 72 hrs): did not inhibit; 3H thymidine incorporation (Mouse B cells; B cells stimulated with anti-CD40 MAb): increased
B2	No significant effects			
B3		lower	induced	OAS activity in the serum and plasma of mice (OAS activity): induced
B4			did not induce	
